Source: patent US20210395390A1 (Bayer, published 2021)
Changes are numbered by the printed parent chain.

B1: TPP-9251 (antibody, human IgG1, lambda, V domains shown)
VH: EVQLLESGGGLVQPGGSLRLSCAASGFTFSNYGIHWVRQAPGKGLEWVSAIGTGGDTYYADSVTGRFTISRDNSKNTLYLQMNSLRAEDTAVYYCARDRGYYDILTGLYDYWGQGTLVTVSS
VL: QSVLTQPPSASGTPGQRVTISCSGSSSNIGNNYVNWYQQLPGTAPKLLIYGNYHRPSGVPDRFSGSKSGTSASLAITGLQAEDEADYYCSSYAGSNNWVFGGGTKLTVLG
B2: TPP-9258 (antibody, human IgG1, lambda, V domains shown)
VH: B1 VH with N31S, I34M, T64Q
VL: B1 VL
B3: TPP-9238 (antibody, human IgG1, lambda, V domains shown)
VH: B1 VH with T64M
VL: B1 VL

What follows are binders tested against anti-FXIa antibody 076D-M007-H04-CDRL3-N110D (assay: cell-based or functional assay).

| Binder | aPTT 1.5 X [µM] | biochemical FXIa assay IC 50 [nM] | plasma based assay IC 50 [nM] |
| --- | --- | --- | --- |
| B1 | 0.06 | 0.2 | 6 |
| B2 | 0.1 | 0.5 | 7 |
| B3 | 0.1 | 0.5 | 10 |
